Reference: PMC10952621

Legend:
[1] = biological target: LQTS-associated calmodulin variant D95V (human); experiment: ITC; peptide titrated into CaM (~50 uM) in the cell; 50 mM Na-HEPES, 100 mM KCl, 2 mM MgCl2, pH 7.5, 1 mM EGTA (Ca2+-free); 25 °C; one-site binding model
[2] = biological target: LQTS-associated calmodulin variant N97I (human); experiment: as above
[3] = biological target: LQTS-associated calmodulin variant D131H (human); experiment: as above
[4] = biological target: LQTS-associated calmodulin variant D95V (human); experiment: ITC; Kv7.1-HB peptide titrated into CaM (~50 uM) in the cell; 50 mM Na-HEPES, 100 mM KCl, 2 mM MgCl2, pH 7.5, 5 mM CaCl2; 25 °C; two-site binding model
[5] = biological target: LQTS-associated calmodulin variant N97I (human); experiment: as above
[6] = biological target: LQTS-associated calmodulin variant D131H (human); experiment: as above

Kd [1]: 3900 nM
dH [1]: 5.8 kcal/mol
stoichiometry N [1]: 0.9 sites
Kd [2]: 2400 nM
dH [2]: 4.7 kcal/mol
stoichiometry N [2]: 0.8 sites
dH [3]: 3.3 kcal/mol
stoichiometry N [3]: 0.9 sites
KD, first binding event [4]: 6.9 nM
KD, second binding event [4]: 725 nM
N, first binding event [4]: 0.8 sites
N, second binding event [4]: 0.8 sites
dH, first binding event [4]: -13.2 kcal/mol
dH, second binding event [4]: -14.9 kcal/mol
KD, first binding event [5]: 4.7 nM
KD, second binding event [5]: 775 nM
N, first binding event [5]: 1.1 sites
N, second binding event [5]: 1.1 sites
dH, first binding event [5]: -12.9 kcal/mol
dH, second binding event [5]: -11.5 kcal/mol
KD, first binding event [6]: 9.7 nM
KD, second binding event [6]: 908 nM
N, first binding event [6]: 0.8 sites
N, second binding event [6]: 1.4 sites
dH, first binding event [6]: -14.3 kcal/mol
dH, second binding event [6]: -15.5 kcal/mol
Substance: Kv7.1-HB(507-536) peptide, helix B of the KCNQ1 C-terminus
